Measurements: the RNAGym collection of RNA variant scans (doi:10.1073/pnas.2313332121)

B1: TPR t1 (parent)
chain: GACCAAUCUGCCCUCAGAGCUCGAGAACAUCUUCGGAUGCAGAGGAGGCAGGCUUCGGUGGCGCGAUAGCGCCAACGUCCUCAACCUCCAAUGCAUCCCACCACAUGAUGAUGCCUGAAGAGCCUUGGUUUUUUG

Variants of: B1
Experiment: polymerase ribozyme fitness, log enrichment relative to wild type (log ratio); higher = more active; in vitro selection for triplet polymerase activity
In short: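 For each subunit of a heterodimeric triplet polymerase ribozyme, a mutant library was built by PCR and transcribed, then taken through a single in vitro selection round in triplicate. Selection involved annealing to a biotinylated primer, the partner subunit and triplets, incubation frozen at −7 °C, gel excision of extended constructs, capture on streptavidin beads and RT-PCR. Genotypes were retained after Illumina sequencing of inputs and outputs only with ≥10 input reads and ≥1 read in each output. Fitness is defined as the logarithm of a genotype's enrichment relative to wild-type enrichment, using inverse-variance-weighted averages across replicates, with the logarithm taken to base 2.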

Variant | polymerase ribozyme fitness (log ratio)
G39U G57A | -0.803
C40A G44A U78C | -2.1
G39U G52U A95U U109G | -6.38
G39C A118C | -2.89
G39C C73U C99U C102A C124A G135A | -4.92
G39C G63A C76A G117C | -6.26
G39A G57U U116A U125A | -4.53
G39A G61A C85U | -0.757
C40A C89G C101A U130G | -5.66
C40A C49G U55C A95C G120A | -2.38
G39C C53G C124U G128U | -0.975
G39U A119G | 0.375
C40G A41C | -3.16
G39U A43U G52C C73G C94A C97G G110C | -7.55
G39U C115U | -1.86
C40A C114A G135A | -3.46
G39U U55G A74C A75C C104U G113C | -3.51
G39U G71C U116G | -3.1
G39C G57A | -1.33
C40G C49A G77A C115A | -2.4
G39A G51U U78A | -4.54
G39A U78A A108G A111C | -1.88
C40G G45A | -2.11
G39U U78C | -0.554

Variant | polymerase ribozyme fitness (log ratio)
G39U U78G | -0.403
G39U G51U | -4.93
C40G C49G G51A C76U | -4.64
C40A G110A U116A | -5.12
G39C C89A C99U U106A A111G | -6
C40G G48C G93C | 0.0171
G39U G48A G61C | -2.96
G39A G63U G69U | -1.34
G39C C104U | -1.04
C40G C62U U87G | -1.61
C40A G69U | -0.43
C40A G69A | -4.81
G39C G69A U112A | -3.52
G39U C114G | -3.65
G39U C114U | -2.86
C40A C80A G93U C101A | -3.95
G39U G52C A95U C115A A118G | -3.5
G39U G45U C62U U112C | -0.882
G39U C94G G110A | -1.31
G39U C73A | -0.759
C40A C62U A91U G93C C104U G113A | -2.62
C40G C56G G122A | -1.45
C40G A46U | -2.96
G39C U126A | -2.89

Variant | polymerase ribozyme fitness (log ratio)
G39U C70G G122A | -3.94
C40A U129C | -1.74
C40G C72U G127C | -2.34
G39C C70U U112G | -2.08
G39C A90G | 0.876
G39U C53U | -0.876
G39U C53G | 0.711
C40A G52U G63U U112A | -2.78
G39A G57U G71U U78G | -1.84
G39U G44A | -1.38
C40A G63A A84U | -2.88
G39U G47A C86U C101A G113U | -4.62
C40G C56A C79G C101U G110A | -6.02
C40A G71U G110C C114A | -6.53
C40A A41U A50C | -1.94
G39A U116A U129C | -3.92
C40G A46G G61C C85U | -6.04
C40G G52A | -0.59
C40G C89G G93A | -2.6
C40G C64U C85A U112C | -0.298
C40G G48U A105U | -3.14
G39U G61A | -0.103
G39U G61U | 0.39
G39A G71C G93U C104U C123A | -3.19

Variant | polymerase ribozyme fitness (log ratio)
C40A C56A C97U | -1.12
C40A G42U C56A | -2.35
C40A A43U G63U C89U C102U U106C C123A | -7.19
G39U G60C G61A A118U | -1.64
G39U C89U A118U | -0.539
C40G A50U G61A C79U C85G G117U A121U U134A | -2.53
G39U C70U | -2.34
C40A C56G G60A | -3.73
C40A A41C C115A | -2.44
C40G G47U C64U G93U U129C U133G | -3.04
G39C C115A | -1.12
G39C U112A A121U | 1.84
C40G C72G C82U U106A | -2.01
C40A A50U C89U | -1.95
C40A A46U G69U C80U G110A U112G | -7.41
G39A G113C A119U | -3.54
G39A G45A C53A C102U A111C | -3.94
G39U A46G | -1.02
C40A G57A | -3.1
C40A C49A C53U G110A U130G | -4.63
G39U C53G U87A A90G | -0.306
C40G G57A G61U G113A A121G G122A | -2.96
G39U U96A C115A U126G | -6.69
G39A G113U | -2.43

Variant | polymerase ribozyme fitness (log ratio)
C40A G61U G93C C94G C124U | -1.28
G39U C79U C89A A111U | -5.59
C40A C49A C86G | -3.35
C40G A43U | -2.95
G39A G61C A118G G122A | -3.03
C40A G60A G93A A121U | 1
G39U C40A C62U | -2.99
C40G C114U | -2.54
C40A G48A G61A U92A C94U A105G | -7.09
G39C U78C | -1.14
C40A C101U | -1.61
G39U C104A G120A | -1.22
G39C A41U C72U A74U G113U C114U A121G | -1.73
G39U U106A G127A | -2.14
C40A C88U | -0.447
G39U C64U C101G A108G | -4.66
G39U G52U G61U C102U | -4.31
G39A G61A U78C | -0.505
C40G A43U U54G | -2.72
G39C C73G C102A | -4.36
G39U G58A | 0.844
C40G A100U U133G | -4.07
C40G A41U G45A G60A A91U | -4.96
G39A G71C G93C C94U | -2.14

Variant | polymerase ribozyme fitness (log ratio)
G39A G69A | -3.04
C40A G63A C79A C86A C104A C114U | -7.08
G39U A41C C94U C124A | 0.616
C40A A41G C70U | -1.7
G39U C79G U96C | -4.66
G39C A91C | -1.16
G39C A91U | -2.41
G39U G48U A90U | -2.92
G39A G71U A83U | -1.37
C40G C123G | 0.299
C40G C123U | 0.0444
C40G G42A U59A A95G C123G | -2.1
G39U U55A G60A | -0.52
C40G G48A C64U C104A U109A C114A U130A | -5.98
G39A U132A | -0.367
C40A A41G G42A A43G G122U | -3.41
C40A A41U A50C C62A | -5.7
G39C A43U C85A U112A C115U U130C | -4.22
G39A G48U A50U A84U C85A | -3.82
G39U U78G A83C A91G U129A | -3.94
C40A G44C C49G U54A G71A C99U U109A C115U U130G | -6.71
G39C G45C C64U C82A C85G | -5.8
C40A G120U | -0.939
C40A G120A | -0.957

Variant | polymerase ribozyme fitness (log ratio)
G39C G48U A111U | -4.49
C40A A66U C72G C94U | -3.54
C40G C62U G93C G128U | -1.46
C40G A100U C101A | -3.4
C40A G61U U109G | -6.14
G39A G48A C88A | -1.33
C40G C89G | -2.85
C40A G51A U78C C124A | -3.18
C40A U87A C88U G135C | -2.71
C40G G45A U78C G113U G135A | -4.25
C40G G45U A90U G93U | -4.32
C40A G63U C104U C115G | -3.72
G39C G48A G71U | -1.51
C40A G45U G63A | -2.99
G39U A41G G44U C56G A105C A111U | -5.8
C40A A41U | -2.43
C40A G71U C115G C123G | -5.05
C40A G52A C101A | -3.1
G39C G69A | -3.44
G39U C70U G117C G128A | -5.92
C40A U92C A118G | -2.05
G39U G117A | -2.1
G39C U59A C104A | -2.48
